Data published in the nanobody polyreactivity screen of Harvey et al. (2022).

Assay: yeast display, Sf9 membrane polyspecificity reagent, FACS + sequencing; frameworks hold sequencing errors
Outline: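 Synthetic nanobody libraries on Saccharomyces cerevisiae BJ5465 were galactose-induced for 36–48 hours, stained 1 hour at 4 °C with 10% biotinylated, detergent-solubilized Sf9 membrane reagent and enriched on streptavidin microbeads. FACS then separated cells into low and high (top ~1%) gates by anti-HA (expression) and streptavidin (reagent binding) fluorescence. Genes were colony-PCR amplified, MiSeq 2 × 250 sequenced and CDR-length filtered. A clone's polyreactivity label is that of its gate of origin.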

Row | Sequence | polyreactivity (PSR sort gate)
1 | QVQLVESGGGLVQAGGSLRLSCAASGSTFFPYAMGWYRQAPGKERELVATINYSGGGTYYADSVKGRFTISRDNAKNTVYLQMNSLKPEDTAVYYCANTLARFDRGYYWGQGTQVTVSS | low polyreactivity
2 | QVQLVESGGGLVQAGGSLRLSCAASGSTFFQYAMGWYRPAPGKERELVAAITTSGGRTYYADSVKGRFTISRDNAKNTVYLQMNSLKPEDTAVYYCAGYNYWGQGTQVTVSS | high polyreactivity
3 | QVQLVESGGGLVQAGGSLRLSCAASGSTFFRNAMGWYRQAPGKERELVAGITSGVTTYYADSVKGRFTISRDNAKNTVYLQMNSLKPEDTAVYYCAVYWRGRGAFTYGSWGQGTQVTVSS | high polyreactivity
4 | QVQLVESGGGLVQAGGSLRLSCAASGSTFFRYAMGLYRQAPGKEREFVAAITSSGGNTYYADSVKGRFTISRDNAKNTVYLQMNSLKPEDTAVYYCAAVWYSPYVKYNYWGQGTQVTVSS | low polyreactivity
5 | QVQLVESGGGLVQAGGSLRLSCAASGSTFFRYAMGWYRQAPGKEREFVAAISKRGGSTHYADSVKGRFTISRDNAKNTVYLQMNSLKPEDTAVYYCAASSFTSSYNYWGQGTQVTVSS | high polyreactivity
6 | QVQLVESGGGLVQAGGSLRLSCAASGSTFFSNTMGWYRQAPGIERELVAAITSRGGRTYYADSVKGRFTISRDNAKNSVYLQMNSLKPEDTAVYYCAARFVLHGVYLKFYWGQGTQLTVSS | high polyreactivity
7 | QVQLVESGGGLVQAGGSLRLSCAASGSTFFSYDMGWYRQAPGKERELVATISTSVGRTYYADSVKGRFTISRDNAKNTVYLQMNSLKPEDTAVYYCATVGYLYTPVVVTWWDWGDYWGQGTQVTVSS | low polyreactivity
8 | QVQLVESGGGLVQAGGSLRLSCAASGSTFFSYVMGWYRQAPGKERELVAAISNGGSTYYADSVKGRFTISRDNAKNSVYLQMNSLKPEDTAVYYCAAGGRRKRGNYWGQGTQVTVSS | high polyreactivity
9 | QVQLVESGGGLVQAGGSLRLSCAASGSTFFTNVKGWYRQAPGKERELVAVIRWRGSDTYYADSVKGRFTISRDNAKNTVYLQMKSLKPEDTAFYYCNAKESFYPTTGEQGYSYAYWGQGTQLTVSS | low polyreactivity
10 | QVQLVESGGGLVQAGGSLRLSCAASGSTFFTYTMGWYRQAPGKERELVAAISSGGSTYYADSVKGRFTISRDNAKNTVYLQMNSLKPEDTAVYYLLRGQGTQVTVSS | low polyreactivity
11 | QVQLVESGGGLVQAGGSLRLSCAASGSTFFVNAMGWYRQAPGKERELVASITVSSGRTYYADSVKGRFTISRDNAKNTVYLQMNSLKPEDTAVYYCAARHLYWRREGYYWGQGYQVTVSS | high polyreactivity
12 | QVQLVESGGGLVQAGGSLRLSCAASGSTFFWYAMGWYRQEPGKERELVAAINWRGDRTYYADSVKGRFTISRDNAKNTVYLQMNSLKPEDTAVYYCNAVRVHAYSTGEYGYWGQGTQVTVSS | high polyreactivity
13 | QVQLVESGGGLVQAGGSLRLSCAASGSTFFYYAMGWYRQAPGKERELVAAITSSGGRTYYADSVKGRFTISRDNAKNTVYLQMNSLKPEDTAVYYCAARDYRQSRYEYWGQGTQVTVSS | high polyreactivity
14 | QVQLVESGGGLVQAGGSLRLSCAASGSTFGANAMGWYRQAPGKEREFVAAISGSGTTTYYADSVKGRFTISRDNAKNTVYLQINSLKPEDTAVYYCAKTRKAHWLEYWGQGTQVTVSS | low polyreactivity
15 | QVQLVESGGGLVQAGGSLRLSCAASGSTFGDNAMGSYRQAPGKERELVAAISSGGGSTYYADSVKGRFTISRDNAKNTVYLQMNSLKPEDTAVYYCAADVTLTLYRYILDYWGQGTQVTVSS | low polyreactivity
16 | QVQLVESGGGLVQAGGSLRLSCAASGSTFGDNAMGWYRQAPGKERELVAAISSSGDSTYYADSVKGRFTISRDNAKNTVYLQMNSLKPEDTAVYYCAADRGSTAGSVTYTPGNYWGQGTQVTVSS | low polyreactivity
17 | QVQLVESGGGLVQAGGSLRLSCAASGSTFGDYAMGWYRQAPGKERELVAAISSSGGSTYYADSVKGRFTISRDNAKNTVYLQMNSLKPEDTAVYYCNADRFLYYARTYWYFWFGYWGQGTQVTVSS | low polyreactivity
18 | QVQLVESGGGLVQAGGSLRLSCAASGSTFGDYDMGWYRQAPGKERELVAAITIGGITTYADSVKGRFTISRDNAKNTVYLQMNSLKPEDTAVYYCAAAERGDWDDYWGQGTQVTVSS | low polyreactivity
19 | QVQLVESGGGLVQAGGSLRLSCAASGSTFGDYTMGWYRQAPGKERELVAAISSGGSTYYADSVKGRFTISRDNAKNTVYLQMNSLKPEDTAVYYCAAYTKRYLYNYWGQGTQVTVSS | high polyreactivity
20 | QVQLVESGGGLVQAGGSLRLSCAASGSTFGENDRGWSRQEPGKERELVAAITWSGGSTYYADSVKGRFTISRDNAKNTVYLQMNSLKPEDTAVYYCAADRYWIVLYDYWGQGTQVTVSS | low polyreactivity
21 | QVQLVESGGGLVQAGGSLRLSCAASGSTFGEYPMGWYRQAPGKEREFVAAITFSDDSTYYADSVKGRFTISRDNAKNTVYLQMNSLKPEDTAVYYCAAVLSRHYDYWGQGTQVTVSS | high polyreactivity
22 | QVQLVESGGGLVQAGGSLRLSCAASGSTFGFYAMGGYRQAPGKERELVAAITSGDITYADSVKGRFTISRDNAKNTVYLQMNSLKPEDTAVYYCATTSYGYWFGYIPEVDYWGQGTQVSVSS | low polyreactivity

Row | Sequence | polyreactivity (PSR sort gate)
23 | QVQLVESGGGLVQAGGSLRLSCAASGSTFGFYAMGWYRPAPGKERELVAAISWSTTSTYYADSVKGRFTISRDNAKNTVYLQMNSLKPEDTAVYYCAAEEWYLWYYYWGQGTQVTVSS | high polyreactivity
24 | QVQLVESGGGLVQAGGSLRLSCAASGSTFGGYAMGWYRQAPGKEWELVAAISWNGDSTYYADSVKGRFTISRDNAKNTVYLQMNSLKPEDTAVYYCAAPYSGPYRSYEYYWGQGTQVTVSS | low polyreactivity
25 | QVQLVESGGGLVQAGGSLRLSCAASGSTFGGYVMGWYRQAPGKERELVAAIRRVGRTYYADSVKGRFTISRDNAKNTVYLQMNSLKPEDTAVYYCATSYYLAYRSITPYDYWGQGTQVTVSS | low polyreactivity
26 | QVQLVESGGGLVQAGGSLRLSCAASGSTFGGYVMGWYRQAPGKERELVAAISRSGASTYYADSVKGRFTISRDNAKNTVYLQMNSLKPEDTAVYYCAAYQARGMDYWGQGTQVTVSS | high polyreactivity
27 | QVQLVESGGGLVQAGGSLRLSCAASGSTFGHYAMGWYRQAPGKERELVAVISRSGARTYYADSVKGRFTISRDNAKNTVYLQMNSLKPEDTAVYYCNAGPYGGNPFDYWGQGTQVTVSS | high polyreactivity
28 | QVQLVESGGGLVQAGGSLRLSCAASGSTFGINAMGWYRQAHGKERELVARISSGVRTYYADSVKGRFTISRDNAKNTVYLQMNSLKPEDTAVYYCAAVYYRGVDRAILSYRYYYWGQGTQVTVSS | high polyreactivity
29 | QVQLVESGGGLVQAGGSLRLSCAASGSTFGINAMVWYRQAPGKERELVASITRRGGSTYYADSVKGRFTISRDNAKNTVYLQMNSLKPEDTAVYYCNKTYRYGTPLYDYWGQGTQVTVSS | high polyreactivity
30 | QVQLVESGGGLVQAGGSLRLSCAASGSTFGIYAMRWYRQAPGKERELVAAISSRGSTYYADSVKGRFTISRDNAKNTVYLQMNSLKPEDTAVYYCAAKVWARVDGRQFRMVYWGQGTQVTVSS | high polyreactivity
31 | QVQLVESGGGLVQAGGSLRLSCAASGSTFGIYPMAGNRTEPGKERELVAAISSGGSTNYADSVKGRFTISRDNAKNSVYLQMNSLNPEDTAVYYCAVESVYEYGGYVDSAYDYWGQGTQVTVSS | low polyreactivity
32 | QVQLVESGGGLVQAGGSLRLSCAASGSTFGKNAMGWSRQAPGNERELVAGITSGGSTYYADSVKGRFTISRDNAKNTVYLQMNSLKPEDTAVYYCAAVRRWKYDWGQGTQVTVSS | high polyreactivity
33 | QVQLVESGGGLVQAGGSLRLSCAASGSTFGKNAMGWYRQAPRKERELVAAISRSGGRTYYADSVKGRFTISRDNAKNTVYLQMNSLKPEDTAVYYCAREWYTAGSGDYWGQGTQVTVSS | low polyreactivity
34 | QVQLVESGGGLVQAGGSLRLSCAASGSTFGLKAMGWYRQAPGKERELVAAITSGGTYYADSVKGRFTISRDNAKNTVYLQMNSLKPEDTAVYYCAADGTWSIYGGLYYWGQGTQVTVSS | low polyreactivity
35 | QVQLVESGGGLVQAGGSLRLSCAASGSTFGLNPMGWYRQAPGKERELVAAISTSGGSTYYADSVKGRFTISRDNAKNTVYLQMNSLKPEDTAVYYCAAEVVAGYDYSQYYYWGQGTQVTVSS | low polyreactivity
36 | QVQLVESGGGLVQAGGSLRLSCAASGSTFGLYAMGWYRQAPGKEREFVAAISYSGSSTYYADSVKGRFTISRDNAKNTVYLQMNSLKPSDTAVYYCAARRSEHGYTYWGQGSQVTVSS | high polyreactivity
37 | QVQLVESGGGLVQAGGSLRLSCAASGSTFGLYGMGWYRQAPGKERELVAAITYSGGGTYYADSVKGRFTISRDNAKNTVYLQMNSLKPEDTAVYYCAAEYYSSITGWYYYWGQGTLVTVSS | low polyreactivity
38 | QVQLVESGGGLVQAGGSLRLSCAASGSTFGLYVMGWYRQAPGKERELVAAINRICSRTYYADSVKGRFTISRDNAKNTVYLQMNSLKPEDTAVYYCAADYDYTSPGDDYWGQGTQVTVSS | high polyreactivity
39 | QVQLVESGGGLVQAGGSLRLSCAASGSTFGLYVMGWYRQAPGKERELVATITRSGGSTYADSVKGRFTISRDNAKNTVYLQMNSLKPEDTAVYYCNADYPKPVYYSYWHQEFEYWGQGTQVTVSS | low polyreactivity
40 | QVQLVESGGGLVQAGGSLRLSCAASGSTFGNNAMGWYRQAPGKERELVAAITFRGTSTYADSVKGRFTISRDNAKNTVSLQMNSLKPEDTAVYYCAAVVYFVSYRFYYWGQGTQVTVSS | high polyreactivity
41 | QVQLVESGGGLVQAGGSLRLSCAASGSTFGNYAMGWYRQAPGKERELVATISRSGGSTYYADSVKGRFTISRDNAKNTVYLQMNSLKPEDTAVYYCNRRYYTRKPDYNSWGQGTQVTVSS | high polyreactivity
42 | QVQLVESGGGLVQAGGSLRLSCAASGSTFGNYAMGWYRQAPGKERELVAVITSAGSTYYADSVKGRFTISRDNAKNTVYLQMNSLKPEDTAVYYCNTGKHVRYYYWGQGTQVTVSS | low polyreactivity
43 | QVQLVESGGGLVQAGGSLRLSCAASGSTFGPYALGWYRQAPGKERELVAAIDKSGGSTYYADSVKGRFTISRDNAKNTVYLQMNSLKPEDTAVYYCAADMLRYFGYYDYDSWGQGTQVTVSS | low polyreactivity
